From patent US20250277029A1, “CANNABINOID TYPE 1 RECEPTOR BINDING PROTEINS AND USES THEREOF” (AMGEN INC., priority 2022, published 2025)

T1: XCR1-SMALP
T1 sequence (P46094 whole entry, species assumed, looked up): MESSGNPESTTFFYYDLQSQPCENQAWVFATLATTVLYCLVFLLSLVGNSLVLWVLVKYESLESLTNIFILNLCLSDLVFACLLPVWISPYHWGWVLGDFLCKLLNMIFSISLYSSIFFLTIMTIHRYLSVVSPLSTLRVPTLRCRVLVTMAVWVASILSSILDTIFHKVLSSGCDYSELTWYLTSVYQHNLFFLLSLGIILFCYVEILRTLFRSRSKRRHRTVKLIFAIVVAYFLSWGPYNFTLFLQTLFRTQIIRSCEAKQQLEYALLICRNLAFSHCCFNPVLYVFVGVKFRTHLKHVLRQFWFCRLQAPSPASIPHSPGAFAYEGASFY

T2: XCR1-SMALP-GFP
T2 sequence (P46094 whole entry, species assumed, looked up): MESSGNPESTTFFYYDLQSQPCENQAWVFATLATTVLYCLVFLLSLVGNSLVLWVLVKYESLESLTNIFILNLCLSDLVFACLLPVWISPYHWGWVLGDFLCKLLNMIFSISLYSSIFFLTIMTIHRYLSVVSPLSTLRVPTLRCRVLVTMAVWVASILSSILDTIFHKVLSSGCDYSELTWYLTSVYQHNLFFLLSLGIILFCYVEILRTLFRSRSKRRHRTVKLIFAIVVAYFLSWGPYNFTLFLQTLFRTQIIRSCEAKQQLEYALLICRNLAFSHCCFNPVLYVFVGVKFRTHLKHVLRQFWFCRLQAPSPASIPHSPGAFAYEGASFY


Molecular target: T1, XCR1-SMALP
Assay: flow cytometry, yeast-displayed Fab, 50 nM XCR1 SMALP

Row | relative binding fold change compared to LIBC523797-1(Fab) [fold] | Binder
1 | 0.59 | LIBC673952-1 (Fab on yeast) (Fab, V domains shown) VH: QVQLQESGPGLVKPSQTLSLTCTVSGGSIRRGGDYWSWIRQHPGKGLEWIGHVYYTGQTTYNPSFRGRVTISVNTYKNQFSLKLSSVTAADTAVYYCARDYDILTGYSYYYYGLDVWGQGTTVTVSS VL: DIVMTQSPLSLPVTPGEPASISCRSSQSLLHRSGYNYLDWYLQKPGQSPQLLIYQGSNRASGVPDRFSGSGSGTDFTLKISRVEAEDVGVYYCRQARALPRTFGQGTKVEIKR
2 | 0.8 | LIBC674229-1 (Fab on yeast) (Fab, V domains shown) VH: QVQLQESGPGLVKPSQTLSLTCTVSGGSIRRGGDYWSWIRQHPGKGLEWIGHIYQTGQTKYNPSFKGRVRISVNTYKNQFSLKLSSVTAADTAVYYCARGYDVSGYSYYYYGMDVWGQGTTVTVSS VL: DIVMTQSPLSLPVTPGEPASISCRSSQSLLHRSGYNYLDWYLQKPGQSPQLLIYQGSNRASGVPDRFSGSGSGTDFTLKISRVEAEDVGVYYCMQSLQTPRTFGQGTKVEIKR
3 | 0.74 | LIBC674090-1 (Fab on yeast) (Fab, V domains shown) VH: QVQLQESGPGLVKPSQTLSLTCTVSGGSIRRGGDYWSWIRQHPGKGLEWIGHIYYAGSTAYNPNFRGRVRISVNTYKNQFSLKLSSVTAADTAVYYCARGYDTSGYSYYYYGLDVWGQGTTVTVSS VL: DIVMTQSPLSLPVTPGEPASISCRSSQSLLHRSGYNYLDWYLQKPGQSPQLLIYQGSNRASGVPDRFSGSGSGTDFTLKISRVEAEDVGVYYCMQSLQTPRTFGQGTKVEIKR
4 | 0.79 | LIBC674200-1 (Fab on yeast) (Fab, V domains shown) VH: QVQLQESGPGLVKPSQTLSLTCTVSGGSIRRGGDYWSWIRQHPGKGLEWIGHVYYTGQTAYNPNFRNRVRISVNTYKNQFSLKLSSVTAADTAVYYCARGYDVSGYSYYYYGMDVWGQGTTVTVSS VL: DIVMTQSPLSLPVTPGEPASISCRSSQSLLHRSGYNYLDWYLQKPGQSPQLLIYLGSNRASGVPGRFSGSGSGTDFTLKISRVEAEDVGVYYCMQSLQTPRTFGQGTKVEIKR

Molecular target: T2, XCR1-SMALP-GFP
Assay: flow cytometry, yeast-displayed Fab, 25 nM XCR1-SMALP-GFP, after background subtraction

Row | Relative binding fold change compared to LIBC528116 (Fab) [fold] | Binder
5 | 0.64 | LIBC680562-1 (yeast-displayed Fab) (Fab, V domains shown) VH: QVQLQESGPGLVKPSQTLSLTCTVSGGSIRRGGDYWAWIRQHPGKGLEWIGHIYQTGSTNYNPRFKGRATISVNTYKNQFSLKLSSVTAADTAVYYCARNYDTLTGYSYYYYGMDVWGQGTTVTVSS VL: DIQMTQSPSSLSASVGDRVTITCRASQSISSYLNWYQQKPGKAPKLLIYSARRLSSGVPSRFSGSGSGTDFTLTISSLQPEDFATYYCQQYAKSPITFGGGTKVEIKR
6 | 0.47 | LIBC680800-1 (yeast-displayed Fab) (Fab, V domains shown) VH: QVQLQESGPGLVKPSQTLSLTCTVSGGSIRRGGDYWAWIRQHPGKGLEWIGHIYQTGSTNYNPRFKGRATISVNTYKNQFSLKLSSVTAADTAVYYCARNYDTLTGYSYYYYGMDVWGQGTTVTVSS VL: DIQMTQSPSSLSASVGDRVTITCRASQSISSYLNWYQQKPGKAPKLLIYSARALSSGVPSRFSGSGSGTDFTLTISSLQPEDFATYYCQQYRKFPLTFGGGTKVEIKR
7 | 0.59 | LIBC680812-1 (yeast-displayed Fab) (Fab, V domains shown) VH: QVQLQESGPGLVKPSQTLSLTCTVSGGSIRRGGDYWGWIRQHPGKGLEWIGHVYQTGSTKYNPSFKDRATISVNTYKNQFSLKLSSVTAADTAVYYCARNYDTLTGYSYYYYGMDVWGQGTTVTVSS VL: DIQMTQSPSSLSASVGDRVTITCRASQSISSYLNWYQQKPGKAPKLLIYSARRLSSGVPSRFSGSGSGTDFTLTISSLQPEDFATYYCQQYRSYPITFGGGTKVEIKR

Further lines, the binder ahead of its results:

Row | Binder | Relative binding fold change compared to LIBC528116 (Fab) [fold]
8 | LIBC680574-1 (yeast-displayed Fab) (Fab, V domains shown) VH: QVQLQESGPGLVKPSQTLSLTCTVSGGSIRRGGDYWAWIRQHPGKGLEWIGHVYYTGSTKYNPSFKDRATISVNTYKNQFSLKLSSVTAADTAVYYCARNYDTLTGYSYYYYGMDVWGQGTTVTVSS VL: DIQMTQSPSSLSASVGDRVTITCRASQSISSYLNWYQQKPGKAPKLLIYGARRLGSGVPSRFSGSGSGTDFTLTISSLQPEDFATYYCQQYSSLPVTFGGGTKVEIKR | 0.56
9 | LIBC681593-1 (yeast-displayed Fab) (Fab, V domains shown) VH: QVQLQESGPGLVKPSQTLSLTCTVSGGSIRRGGDYWAWIRQHPGKGLEWIGHIYQTGSTNYNPRFKGRATISVNTYKNQFSLKLSSVTAADTAVYYCARNYDTLTGYSYYYYGMDVWGQGTTVTVSS VL: DIQMTQSPSSLSASVGDRVTITCRASQSISSYLNWYQQKPGKAPKLLIYNARRLGSGVPSRFSGSGSGTDFTLTISSLQPEDFATYYCQQYRSSPVTFGGGTKVEIKR | 0.72
10 | LIBC681594-1 (yeast-displayed Fab) (Fab, V domains shown) VH: QVQLQESGPGLVKPSQTLSLTCTVSGGSIRRGGDYWAWIRQHPGKGLEWIGHIYQTGSTNYNPRFKGRATISVNTYKNQFSLKLSSVTAADTAVYYCARNYDTLTGYSYYYYGMDVWGQGTTVTVSS VL: DIQMTQSPSSLSASVGDRVTITCRASQSISSYLNWYQQKPGKAPKLLIYKARKLSSGVPSRFSGSGSGTDFTLTISSLQPEDFATYYCQQFGSMPLTFGGGTKVEIKR | 1.04
